4 molecules from US20240400711A1 (SOUND BIOPHARMACEUTICALS, published 2024) can be followed below.

For orientation: Kd means a measure of binding affinity in units of concentration. The koff is a measure of how fast the partners let go of each other. By kon is commonly meant the rate constant with which the complex forms. In general, EC50 (read off the curve) refers to the concentration needed to bring the measured effect to its halfway point. A high value points to a less potent agent.

Experiment [1] has as its target T1, recombinant extracellular domain of CD38 (human, UniProt P28907 43-300).
T1 construct: also called CD38 extracellular domain; AtaGenix ATMP00140HU
As to the kind of experiment: Biacore SPR. (In general: In SPR one partner is held on a chip, and binding of the other changes the refractive index at the surface.)

In experiment [2] the target is T2, human CD38 antigen protein (coated in ELISA) (human, UniProt P28907 43-300, limits assumed).
T2 construct: also called the antigen CD38; human antigen
Nature of the experiment: ELISA on coated CD38 antigen, OD (450 nm) against antibody concentration (ng/ml) [Plate3].

Experiment [3] has as its target CD38 on CD38-positive cells (human, UniProt P28907 1-300). Nature of the experiment: cell-based or functional assay.
The target of another experiment is FcγRIIIa (V176) (UniProt P08637 17-208, limits assumed). Nature of the experiment: kinetics, FcγRIIIa as ligand, antibody as analyte.
FcγRIIIa (V176), sequence (P08637 17-208 F176V limits assumed): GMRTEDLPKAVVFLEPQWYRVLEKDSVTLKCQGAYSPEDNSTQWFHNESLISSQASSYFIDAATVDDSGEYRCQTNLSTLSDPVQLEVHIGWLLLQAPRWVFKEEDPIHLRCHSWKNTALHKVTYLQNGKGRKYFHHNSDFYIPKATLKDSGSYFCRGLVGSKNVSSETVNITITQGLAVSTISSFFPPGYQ
In the next experiment the target is FcγRIIIa(F176) (UniProt P08637 17-208, limits assumed). As to the kind of experiment: kinetics, FcγRIIIa as ligand, antibody as analyte.
FcγRIIIa(F176), sequence (P08637 17-208 limits assumed): as the sequence (P08637 17-208 F176V limits assumed) above, with V160F counted along it

B1: FTL004-hu-10 (antibody, human IgG1, kappa, V domains shown)
VH: QVQLVQSGAEVKKPGASVKVSCKASGYTFTDYNVHWIRQAPGQGLEWIGYFYPRNGATHYAQKFQGRVTMTVDTSTSTAYMELSSLRSEDTAVYYCARGETPGTFPYWGQGTLVTVSS
VL: EIVLTQSPATLSLSPGERATLSCRASESVDNFGITFMHWYQQKPGQAPRLLIYRASNLESGIPARFSGSGSRTDFTLTISSLEPEDFAVYYCQQSSKDPRTFGQGTKLEIKR
notes: also called FLT004-hu-10; FTL004-hum-10
In the case of B1, in experiment [1], the Kd came out at 14.9 nM, the off-rate constant (koff) is 0.00241 s⁻¹ and the on-rate constant (kon) stood at 162000 M⁻¹ s⁻¹. The 50% effective concentration (EC50 (read off the curve)) in experiment [2] was approximately 0.3 µg/mL.

B2: FTL004-hu-14 (antibody, human IgG1, kappa, V domains shown)
VH: EVQLVQSGAEVKKPGATVKISCKASGYTFTDYNVHWIQQAPGKGLEWIGYFYPRNGATHYAEKFQGRVTLTADTSTDTAYMELSSLRSEDTAVYYCARGETPGTFPYWGQGTLVTVSS
VL: DIVLTQSPASLAVSPGQRATITCRASESVDNFGITFMHWYQQKPGQPPKLLIYRASNLESGVPARFSGSGSRTDFTLTINPVEANDTANYYCQQSSKDPRTFGQGTKLEIKR
notes: also called FLT004-hu-14; FTL004-hum-14
With B2, in experiment [1], the Kd worked out at 22.4 nM, the koff was 0.00466 s⁻¹ and the on-rate constant (kon) turned out to be 208000 M⁻¹ s⁻¹. The “EC50 (read off the curve)” value in experiment [2] is approximately 0.5 µg/mL.

B3: FTL004-hu-6 (antibody, human IgG1, kappa)
heavy: not shown
light: DIQLTQSPSSLSASVGDRVTITCQASESVDNFGITFMHWYQQKPGKAPKLLIYRASNLETGVPSRFSGSGSRTDFTFTISSLQPEDIATYYCQQSSKDPRTFGQGTKLEIKRTVAAPSVFIFPPSDEQLKSGTASVVCLLNNFYPREAKVQWKVDNALQSGNSQESVTEQDSKDSTYSLSSTLTLSKADYEKHKVYACEVTHQGLSSPVTKSFNRGEC
notes: Fc before engineering; also called FLT004-hu-6; FTL004-hum-6
In the case of B3, in experiment [1], the equilibrium dissociation constant (Kd) is 2.44 nM, the dissociation rate constant (koff) is 0.000677 s⁻¹ and the kon was 277000 M⁻¹ s⁻¹. For the same molecule, in experiment [3], the “Rate of apoptosis (%), Daudi cells” value stood at 29.3%; the “Rate of apoptosis (%), Raji cells” value was found to be 13.8%; the “Rate of apoptosis (%), Romas cells” value was 63.6%; the “Rate of apoptosis (%), SU-DHL-6 cells” value worked out at 16.8%.

B4: FTL004-7 (antibody, human IgG1, kappa)
heavy: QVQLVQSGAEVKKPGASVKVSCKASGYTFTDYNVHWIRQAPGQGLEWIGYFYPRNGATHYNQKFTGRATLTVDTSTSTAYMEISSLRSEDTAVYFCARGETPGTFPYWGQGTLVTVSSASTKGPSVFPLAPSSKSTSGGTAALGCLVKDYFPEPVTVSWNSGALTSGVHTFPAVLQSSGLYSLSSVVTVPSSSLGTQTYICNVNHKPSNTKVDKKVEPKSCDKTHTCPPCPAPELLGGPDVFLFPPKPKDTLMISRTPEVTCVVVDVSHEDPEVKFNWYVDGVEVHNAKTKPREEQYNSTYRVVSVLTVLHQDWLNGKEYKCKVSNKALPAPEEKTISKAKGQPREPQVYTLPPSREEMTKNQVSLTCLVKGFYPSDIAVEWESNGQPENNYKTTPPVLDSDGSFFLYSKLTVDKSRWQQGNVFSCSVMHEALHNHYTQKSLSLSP
light: DIVLTQSPASLAVSPGQRATITCRASESVDNFGITFMHWYQQKPGQPPKLLIYRASNLESGVPARFSGSGSRTDFTLTINPVEANDTANYYCQQSSKDPRTFGQGTKLEIKRTVAAPSVFIFPPSDEQLKSGTASVVCLLNNFYPREAKVQWKVDNALQSGNSQESVTEQDSKDSTYSLSSTLTLSKADYEKHKVYACEVTHQGLSSPVTKSFNRGEC
notes: copies: 2 + 2
For the molecule B4, in the experiment with FcγRIIIa (V176), the affinity, expressed as Kd, was 36.9 nM; the dissociation rate constant (koff) turned out to be 0.021 s⁻¹; the kon turned out to be 570000 M⁻¹ s⁻¹. In the experiment with FcγRIIIa(F176), this molecule displayed a Kd of 22.7 nM, a koff of 0.0136 s⁻¹ and an on-rate constant (kon) of 599000 M⁻¹ s⁻¹. For the same molecule, in experiment [3], the “Rate of apoptosis (%), Daudi cells” value was found to be 37.4%; the “Rate of apoptosis (%), Raji cells” value was 17.8%; the “Rate of apoptosis (%), Romas cells” value worked out at 60.3%; the “Rate of apoptosis (%), SU-DHL-6 cells” value is 20.3%.
